By Kd is commonly meant the equilibrium constant for the complex coming apart. For orientation: koff means a measure of how fast the partners let go of each other. In general, kon refers to a measure of how fast the partners come together.

From US20240409635A1 (VIBRANT PHARMA, published 2024) come the findings set out here.

Assay [1] addresses T1, recombinant human EGFR protein (ACRO systems, EGR-H5222) (human, UniProt P00533 25-645).
T1 construct: Bought
The assay can be described thus: BLI, antibody on AHC sensor, antigen as analyte.

Assay [2] concerns the target T2, recombinant human tumor antigen CEACAM-6 (ACRO systems, CE6-H5223) (human, UniProt P40199 35-320).
T2 construct: Bought
T2 sequence (looked up): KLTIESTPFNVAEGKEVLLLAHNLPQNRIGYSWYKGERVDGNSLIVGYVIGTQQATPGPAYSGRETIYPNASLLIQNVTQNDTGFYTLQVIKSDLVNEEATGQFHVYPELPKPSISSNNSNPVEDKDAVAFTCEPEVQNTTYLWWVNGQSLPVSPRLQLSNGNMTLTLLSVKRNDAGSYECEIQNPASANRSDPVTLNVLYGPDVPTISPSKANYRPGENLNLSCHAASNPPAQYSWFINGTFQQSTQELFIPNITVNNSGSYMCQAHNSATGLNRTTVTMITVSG
The assay is described as follows: BLI, antibody on AHC sensor, antigen as analyte.

The target of assay [3] is T3, recombinant human protein CD3ε/δ (ACRO systems, CDD-H52W1) (human, UniProt P07766 23-126; P04234 22-105).
T3 construct: Bought heterodimer
The assay is described as follows: BLI, antibody on AHC sensor, antigen as analyte.

The target of assay [4] is T4, keyhole limpet haemocyanin.
T4 construct: Bought reagent, coated at 5 ug/mL; also called KLH
The assay can be described thus: ELISA, KLH coated, 100 nM antibody. As to the method:
(§1) The experimental steps are as follows [0420] […] (4) 50 μl anti-human IgG-HRP conjugate (Sigma, AP113P, 1:8000 dilution) was added to each well; the plate was incubated for 1 h at room temperature and washed 6 times with 0.05% PBST; [0424] (5) 50 μl of TMB chromogenic solution (Biopanda, TMB-S-001) was added to each well and incubated at room temperature for 10-15 minutes for color development; [0425] (6) 50 μl of 1M HCl was added to each well to stop the color development, and the absorbance at 450 nm was measured using a microplate reader (Biotek, SYNERGY LX); Data analysis: If the ratio between the absorbance of the antibody and the absorbance of the blank control PBS is ≥3, there is too much non-specific binding.
(In an ELISA, binding on a coated surface is turned into a signal by an enzyme label.)

The target in another assay is T5, Insulin.
T5 construct: Bought reagent, coated at 5 ug/mL
The assay can be described thus: ELISA, insulin coated, 100 nM antibody. As to the method: as §1

T3 sequence (P07766 23-126, stated change not applied, chain 1 of 2): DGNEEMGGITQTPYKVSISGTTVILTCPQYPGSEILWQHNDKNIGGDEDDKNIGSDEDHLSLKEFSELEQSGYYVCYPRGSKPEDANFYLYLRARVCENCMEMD
T3 sequence (P04234 22-105, stated change not applied, chain 2 of 2): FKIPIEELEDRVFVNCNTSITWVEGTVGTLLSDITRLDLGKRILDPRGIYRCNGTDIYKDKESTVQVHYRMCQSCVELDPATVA

B1: EGFR-BsAb (CD3 TA1-Fab x EGFR VHH bispecific control antibody) (bispecific antibody, human IgG4 S228P, kappa, F234A L235A)
heavy: EVKLLESGGGLVQPKGSLKLSCAASGFTFNTYAMNWVRQAPGKGLEWVARIRSKYNNYATYYADSVKDRFTISRDDSQSILYLQMNNLKTEDTAMYYCVRHGNFGNSYVSWFAYWGQGTLVTVSSASTKGPSVFPLAPCSRSTSESTAALGCLVKDYFPEPVTVSWNSGALTSGVHTFPAVLQSSGLYSLSSVVTVPSSSLGTKTYTCNVDHKPSNTKVDKRVESKYGPPCPPCPAPEAAGGPSVFLFPPKPKDTLMISRTPEVTCVVVDVSQEDPEVQFNWYVDGVEVHNAKTKPREEQFNSTYRVVSVLTVLHQDWLNGKEYKCKVSNKGLPSSIEKTISKAKGQPREPQVYTLPPCQEEMTKNQVSLWCLVKGFYPSDIAVEWESNGQPENNYKTTPPVLDSDGSFFLYSRLTVDKSRWQEGNVFSCSVMHEALHNHYTQKSLSLSL
chain: QVQLQESGGGSVQAGGSLKLSCAASGRGFSRYAMGWFRQAPGQDREFVATISWTNSTDYADSVKGRFAISRDNAKNTAYLQMNSLKPEDTAVYYCAADKWASSTRSIDYDYWGQGIQVTVSSESKYGPPCPPCPAPEAAGGPSVFLFPPKPKDTLMISRTPEVTCVVVDVSQEDPEVQFNWYVDGVEVHNAKTKPREEQFNSTYRVVSVLTVLHQDWLNGKEYKCKVSNKGLPSSIEKTISKAKGQPREPQVCTLPPSQEEMTKNQVSLSCAVKGFYPSDIAVEWESNGQPENNYKTTPPVLDSDGSFFLVSRLTVDKSRWQEGNVFSCSVMHEALHNRFTQKSLSLSL
light: QAVVTQESALTTSPGETVTLTCRSSTGAVTTSNYANWVQEKPDHLFTGLIGGTNKRAPGVPARFSGSLIGDKAALTITGAQTEDEAIYFCALWYSNLWVFGGGTKVEIKRTVAAPSVFIFPPSDEQLKSGTASVVCLLNNFYPREAKVQWKVDNALQSGNSQESVTEQDSKDSTYSLSSTLTLSKADYEKHKVYACEVTHQGLSSPVTKSFNRGEC
notes: also called anti-EGFR-BsAb
For the molecule B1, in assay [1], the Kd is 4.43 nM, the off-rate (koff) amounted to 0.00519 s⁻¹ and the on-rate constant (kon) amounted to 1.17e+06 M⁻¹ s⁻¹. Besides, in assay [2], the koff was 0.000247 s⁻¹ and the on-rate constant (kon) came to 222000 M⁻¹ s⁻¹. In assay [3], the Kd is 6.43 nM, the koff stood at 0.00338 s⁻¹ and the kon came out at 526000 M⁻¹ s⁻¹.

B2: HER2-BsAb bispecific control antibody (TA1-Fab anti-CD3 x HER2 VHH) (bispecific antibody, human IgG4 S228P, kappa, F234A L235A)
heavy: EVKLLESGGGLVQPKGSLKLSCAASGFTFNTYAMNWVRQAPGKGLEWVARIRSKYNNYATYYADSVKDRFTISRDDSQSILYLQMNNLKTEDTAMYYCVRHGNFGNSYVSWFAYWGQGTLVTVSSASTKGPSVFPLAPCSRSTSESTAALGCLVKDYFPEPVTVSWNSGALTSGVHTFPAVLQSSGLYSLSSVVTVPSSSLGTKTYTCNVDHKPSNTKVDKRVESKYGPPCPPCPAPEAAGGPSVFLFPPKPKDTLMISRTPEVTCVVVDVSQEDPEVQFNWYVDGVEVHNAKTKPREEQFNSTYRVVSVLTVLHQDWLNGKEYKCKVSNKGLPSSIEKTISKAKGQPREPQVYTLPPCQEEMTKNQVSLWCLVKGFYPSDIAVEWESNGQPENNYKTTPPVLDSDGSFFLYSRLTVDKSRWQEGNVFSCSVMHEALHNHYTQKSLSLSL
chain: QVQLVQSGGGLVQAGGSLRLSCAASGRTFSSYAMAWFRQAPGKEREFVAAISWSGANIYVADSVKGRFTISRDNAKDTVYLQMNSLKPEDTAVYYCAVKLGFAPVEERQYDYWGQGTQVTVSSESKYGPPCPPCPAPEAAGGPSVFLFPPKPKDTLMISRTPEVTCVVVDVSQEDPEVQFNWYVDGVEVHNAKTKPREEQFNSTYRVVSVLTVLHQDWLNGKEYKCKVSNKGLPSSIEKTISKAKGQPREPQVCTLPPSQEEMTKNQVSLSCAVKGFYPSDIAVEWESNGQPENNYKTTPPVLDSDGSFFLVSRLTVDKSRWQEGNVFSCSVMHEALHNRFTQKSLSLSL
light: QAVVTQESALTTSPGETVTLTCRSSTGAVTTSNYANWVQEKPDHLFTGLIGGTNKRAPGVPARFSGSLIGDKAALTITGAQTEDEAIYFCALWYSNLWVFGGGTKVEIKRTVAAPSVFIFPPSDEQLKSGTASVVCLLNNFYPREAKVQWKVDNALQSGNSQESVTEQDSKDSTYSLSSTLTLSKADYEKHKVYACEVTHQGLSSPVTKSFNRGEC
notes: IgG4
Consider B2, for which the figures for the “absorbance ratio to PBS blank” value (in assay [4]; with Insulin) were 2.31 and 1.69, respectively.

B3: CEA-BsAb bispecific control antibody (TA1-Fab anti-CD3 x CEA VHH) (bispecific antibody, human IgG4 S228P, kappa, F234A L235A)
heavy: EVKLLESGGGLVQPKGSLKLSCAASGFTFNTYAMNWVRQAPGKGLEWVARIRSKYNNYATYYADSVKDRFTISRDDSQSILYLQMNNLKTEDTAMYYCVRHGNFGNSYVSWFAYWGQGTLVTVSSASTKGPSVFPLAPCSRSTSESTAALGCLVKDYFPEPVTVSWNSGALTSGVHTFPAVLQSSGLYSLSSVVTVPSSSLGTKTYTCNVDHKPSNTKVDKRVESKYGPPCPPCPAPEAAGGPSVFLFPPKPKDTLMISRTPEVTCVVVDVSQEDPEVQFNWYVDGVEVHNAKTKPREEQFNSTYRVVSVLTVLHQDWLNGKEYKCKVSNKGLPSSIEKTISKAKGQPREPQVYTLPPCQEEMTKNQVSLWCLVKGFYPSDIAVEWESNGQPENNYKTTPPVLDSDGSFFLYSRLTVDKSRWQEGNVFSCSVMHEALHNHYTQKSLSLSL
chain: EVQLVESGGGFVQAGESLTLSCTSSTLTFTPYRMAWYRQAPGKQRDLVADISSGDGRTTNYADFAKGRFTISRDNIKNTVFLRMTNLKPEDTAVYYCNTFVSFVGIARSWGQGTQVTVSSESKYGPPCPPCPAPEAAGGPSVFLFPPKPKDTLMISRTPEVTCVVVDVSQEDPEVQFNWYVDGVEVHNAKTKPREEQFNSTYRVVSVLTVLHQDWLNGKEYKCKVSNKGLPSSIEKTISKAKGQPREPQVCTLPPSQEEMTKNQVSLSCAVKGFYPSDIAVEWESNGQPENNYKTTPPVLDSDGSFFLVSRLTVDKSRWQEGNVFSCSVMHEALHNRFTQKSLSLSL
light: QAVVTQESALTTSPGETVTLTCRSSTGAVTTSNYANWVQEKPDHLFTGLIGGTNKRAPGVPARFSGSLIGDKAALTITGAQTEDEAIYFCALWYSNLWVFGGGTKVEIKRTVAAPSVFIFPPSDEQLKSGTASVVCLLNNFYPREAKVQWKVDNALQSGNSQESVTEQDSKDSTYSLSSTLTLSKADYEKHKVYACEVTHQGLSSPVTKSFNRGEC
notes: IgG4
On to B3, for which the “absorbance ratio to PBS blank” value in assay [4] is 2.16; in the assay with Insulin it was 1.24.

B4: CEACAM6-BsAb (CD3 TA1-Fab x CEA-CAM6 VHH bispecific control antibody) (bispecific antibody, human IgG4 S228P, kappa, F234A L235A)
heavy: EVKLLESGGGLVQPKGSLKLSCAASGFTFNTYAMNWVRQAPGKGLEWVARIRSKYNNYATYYADSVKDRFTISRDDSQSILYLQMNNLKTEDTAMYYCVRHGNFGNSYVSWFAYWGQGTLVTVSSASTKGPSVFPLAPCSRSTSESTAALGCLVKDYFPEPVTVSWNSGALTSGVHTFPAVLQSSGLYSLSSVVTVPSSSLGTKTYTCNVDHKPSNTKVDKRVESKYGPPCPPCPAPEAAGGPSVFLFPPKPKDTLMISRTPEVTCVVVDVSQEDPEVQFNWYVDGVEVHNAKTKPREEQFNSTYRVVSVLTVLHQDWLNGKEYKCKVSNKGLPSSIEKTISKAKGQPREPQVYTLPPCQEEMTKNQVSLWCLVKGFYPSDIAVEWESNGQPENNYKTTPPVLDSDGSFFLYSRLTVDKSRWQEGNVFSCSVMHEALHNHYTQKSLSLSL
chain: QVKLEESGGGLVQAGGSLRLSCRTSGRTNSVYTMGWFRQAPGKEREFVAQIMWGAGTNTHYADSVKGRFTISRDSAESTVYLQMNSLKPEDTAVYYCAANRGIPIAGRQYDYWGQGTQVTVSSESKYGPPCPPCPAPEAAGGPSVFLFPPKPKDTLMISRTPEVTCVVVDVSQEDPEVQFNWYVDGVEVHNAKTKPREEQFNSTYRVVSVLTVLHQDWLNGKEYKCKVSNKGLPSSIEKTISKAKGQPREPQVCTLPPSQEEMTKNQVSLSCAVKGFYPSDIAVEWESNGQPENNYKTTPPVLDSDGSFFLVSRLTVDKSRWQEGNVFSCSVMHEALHNRFTQKSLSLSL
light: QAVVTQESALTTSPGETVTLTCRSSTGAVTTSNYANWVQEKPDHLFTGLIGGTNKRAPGVPARFSGSLIGDKAALTITGAQTEDEAIYFCALWYSNLWVFGGGTKVEIKRTVAAPSVFIFPPSDEQLKSGTASVVCLLNNFYPREAKVQWKVDNALQSGNSQESVTEQDSKDSTYSLSSTLTLSKADYEKHKVYACEVTHQGLSSPVTKSFNRGEC
notes: also called anti-CEA-CAM6-BsAb
Regarding B4, in assay [1], the dissociation rate constant (koff) was 0.00143 s⁻¹ and the on-rate constant (kon) was determined as 570000 M⁻¹ s⁻¹. Also, in assay [2], the Kd came out at 1.64 nM, the koff was 0.000336 s⁻¹ and the on-rate constant (kon) was 206000 M⁻¹ s⁻¹. Further, in assay [3], the Kd amounted to 5.73 nM, the off-rate (koff) was determined as 0.00421 s⁻¹ and the on-rate (kon) is 734000 M⁻¹ s⁻¹.
